Data taken from US8273357B2, “Antigen-carbohydrate conjugates” (Massachusetts Institute of Technology, priority 2004, dated 2012).
Entries after “also recorded” stand apart in the source; their conditions may differ.

Assays:
[1] = system: OTII (CD4+) T cells in unfractionated splenocytes; experiment: Antigen presentation assay, unfractionated OTII splenocytes, [3H]thymidine T cell proliferation; format: cell-based, mouse
Method: FIG. 2B is a graph showing that oligosaccharide modification of OVA elicits stronger presentation to OTII T cells than unmodified OVA. Unfractionated OTII splenocytes (3×10^5/well) were incubated with graded doses of OVA or oligosaccharide-modified OVA for eighty-four hours with [^3H]thymidine (1 μCi) added for the last 12 hours. Thereafter [^3H]thymidine incorporation levels were measured and plotted. FIG. 2C is a graph showing that observed enhancements in antigen presentation of (OVA)-3-1 to T cells is carbohydrate dependent. Splenocytes were incubated with antigen as in (B)±(BSA)-3-1 (10 μg mL^−1). In cases where (OVA)-3-1 was added to OVA wells to assess the possibility of direct activation of T cells (see text), (OVA)-3-1 was present at 50 ng mL^−1; incubations were performed for seventy-two hours with [^3H]thymidine (1 μCi) added for the last 12 hours. FIG. 2D is a graph showing that the receptor mediated uptake of (OVA)-3-1 has a different binding profile than that observed for DC-SIGN. Unfractionated splenocytes were incubated with OVA or (OVA)-3-1±mBSA or Lewis^x-BSA (each at 100 μg mL^−1). Incubations were performed for seventy-two hours with [^3H]thymidine (1 μCi) added for the last twelve hours. All values reported are the mean of triplicate measurements.
The ability of these conjugates to enhance antigen uptake by dendritic cells was assessed in comparison to unmodified OVA by incubating graded doses of conjugate and OVA with unfractionated splenocytes (containing T cells, B cells, dendritic cells, macrophages) isolated from OTII (CD4^+) transgenic mice. The ability of dendritic cells to present antigenic peptides derived from targeted proteins was measured as a function of T cell proliferation in response to those presented peptides. T cell proliferation is quantified by [^3H]thymidine incorporation during cellular division.
Pooled inguinal lymph nodes were dissociated in 10% Fetal Bovine Serum RPMI (supplemented with 2 mM L-glutamine) and either mechanically dissociated between two glass slides or, to improve the overall cell yield, incubated in the presence of collagenase (Boehringer) and EDTA for 25 minutes at 37° C./5% CO2 to dissociate DC-T cell clusters. For antigen presentation assays with whole splenocytes, isolated spleens were injected with collagenase/EDTA, gently teased apart and incubated as described above. Splenocytes were cultured in 96-well round-bottom plates at a density of 3×10^5 cells/0.2 mL. In antigen presentation assays utilizing purified dendritic cells and T cells, dendritic cells were isolated from the spleens of C57BL/6 mice following collagenase/EDTA treatment by labeling the dendritic cells with commercially available magnetic microbeads linked to an anti-CD11c^+ antibody (Miltenyi Biotec, Bergisch Gladbach, Germany) (according to the Miltenyi Biotec protocol) and separating labeled Dendritic cells from non-dendritic cells by application of a magnetic field. Similarly, purified […] T cells were obtained from spleens of OTII transgenic mice using magnetic beads Dynal (Oslo, Norway). Purified dendritic cells and T cells were seeded onto 96-well plates round-bottom Plates at a 1:2 DC:T cell ratio unless stated otherwise in the Figures.

OTII T cells = experiment: In vitro restimulation with OVA peptide of T cells from immunized, rechallenged mice; format: in vivo, mouse; settings: OVA peptide 100 μg mL^−1, 24 h
Method: FIGS. 8A and 8B are a series of dot plots (FIG. 8A) and a graph (FIG. 8B) showing that the oligosaccharide-mediated targeting of steady state dendritic cells leads to T cell tolerance. […] 2×10^7 OTII splenocytes were adoptively transferred into B6.Ly5.2/Cr recipients and then immunized by subcutaneous injection with PBS, OVA (200 ng), (OVA)-3-1 (200 ng), (OVA)-3-1 (200 ng)+mBSA (50 μg) or OVA peptide (100 μg) in Incomplete Freund's Adjuvant. At 8 days after these initial immunizations, mice received an antigenic rechallenge of OVA peptide (100 μg) in Complete Freund's Adjuvant. On day ten mice were sacrificed and cells were isolated from the draining lymph node, total T cells were purified by negative selection and the number of OTII T cells were counted by FACS as described for FIG. 6. […]
For T cell proliferation assays in adoptive transfer experiments, inguinal lymph nodes from each experimental group (3 mice/group) were pooled and dissociated with collagenase/EDTA as described above. […] Response to OVA peptide was determined by subtracting background proliferation (no peptide) from specific, peptide-induced proliferation. […] The proliferation index was calculated as the ratio of the response to OVA peptide in an experimental group to the response to OVA peptide in the PBS group.

IFN-γ = IFN-γ ELISA during in vitro peptide restimulation of T cells from immunized mice; format: in vivo, mouse; settings: 24 h; lower limit of detection approximately 0.3 ng mL^−1
Method: (§1) FIGS. 8A and 8B are a series of dot plots (FIG. 8A) and a graph (FIG. 8B) showing that the oligosaccharide-mediated targeting of steady state dendritic cells leads to T cell tolerance. […] 2×10^7 OTII splenocytes were adoptively transferred into B6.Ly5.2/Cr recipients and then immunized by subcutaneous injection with PBS, OVA (200 ng), (OVA)-3-1 (200 ng), (OVA)-3-1 (200 ng)+mBSA (50 μg) or OVA peptide (100 μg) in Incomplete Freund's Adjuvant. At 8 days after these initial immunizations, mice received an antigenic rechallenge of OVA peptide (100 μg) in Complete Freund's Adjuvant. On day ten mice were sacrificed and cells were isolated from the draining lymph node, total T cells were purified by negative selection and the number of OTII T cells were counted by FACS as described for FIG. 6. […] Purified T cells from each experimental group were seeded at 3×10^5 cells/well with purified […] dendritic cells (9×10^4/well) and were incubated for twenty-four hours±OVA peptide (100 μg mL^−1) with [^3H]thymidine (1 μCi) added for the last ten hours. […]
(§2) 75-150 μL aliquots of supernatant were sampled from antigen presentation assays at 24, 48, and 72 hours. […] 25 μL of each supernatant were diluted 1:1 with PBS/1% BSA and analyzed in triplicate for IFN-γ, IL-10, and IL-4 using DuoSet ELISA reagents from R&D Systems. […]

IL-4 = IL-4 ELISA during in vitro peptide restimulation of T cells from immunized mice; format: in vivo, mouse; settings: 24 h; lower limit of detection approximately 0.3 ng mL^−1
Method: as §1, §2

Row | Molecule | inhibition of uptake and presentation of (OVA)-3-1 to OTII T cells ([1]; OTII splenocytes, mBSA or Lewis^x-BSA each at 100 μg mL^−1) | T cell response curve of OVA plus (OVA)-3-1 versus OVA alone (direct activation of T cells) ([1]; 0.05 μg mL^−1 (OVA)-3-1 added to graded doses of OVA) | enhancement of antigen uptake and presentation to T cells (T cell proliferation) compared to unmodified OVA ([1]; OTII splenocytes, graded doses) | ability of T cells from immunized mice to respond to dendritic cell-presented OVA peptide in vitro (OTII T cells) | IFN-γ produced during peptide stimulation in vitro (IFN-γ) | IL-4 produced during peptide stimulation in vitro (IL-4)
1 | mBSA: BSA modified with approximately 25 mannose residues per protein molecule [reference compound] | Neither mBSA nor Lewis^x-BSA significantly impair; also recorded: did not significantly effect presentation |  |  |  |  | 
2 | (OVA)-3-1: ovalbumin modified via SMCC with nonasaccharide 3-1, average of three saccharides per OVA (conjugate) GSIGAASMEFCFDVFKELKVHHANENIFYCPIAIMSALAMVYLGAKDSTRTQINKVVRFDKLPGFGDSIEAQCGTSVNVHSSLRDILNQITKPNDVYSFSLASRLYAEERYPILPEYLQCVKELYRGGLEPINFQTAADQARELINSWVESQTNGIIRNVLQPSSVDSQTAMVLVNAIVFKGLWEKAFKDEDTQAMPFRVTEQESKPVQMMYQIGLFRVASMASEKMKILELPFASGTMSMLVLLPDEVSGLEQLESIINFEKLTEWTSSNVMEERKIKVYLPRMKMEEKYNLTSVLMAMGITDVFSSSANLSGISSAESLKISQAVHAAHAEINEAGREVVGSAEAGVDAASVSEEFRADHPFLFCIKHIATNAVLFFGRCVSP |  | identical | greatest enhancement | significantly less responsive; also recorded: refractory to antigenic stimulation in vitro | no detectable IFN-γ | not detected
3 | ovalbumin (protein, UniProt P01012 2-386, looked up, model antigen, unmodified) Ovalbumin: GSIGAASMEFCFDVFKELKVHHANENIFYCPIAIMSALAMVYLGAKDSTRTQINKVVRFDKLPGFGDSIEAQCGTSVNVHSSLRDILNQITKPNDVYSFSLASRLYAEERYPILPEYLQCVKELYRGGLEPINFQTAADQARELINSWVESQTNGIIRNVLQPSSVDSQTAMVLVNAIVFKGLWEKAFKDEDTQAMPFRVTEQESKPVQMMYQIGLFRVASMASEKMKILELPFASGTMSMLVLLPDEVSGLEQLESIINFEKLTEWTSSNVMEERKIKVYLPRMKMEEKYNLTSVLMAMGITDVFSSSANLSGISSAESLKISQAVHAAHAEINEAGREVVGSAEAGVDAASVSEEFRADHPFLFCIKHIATNAVLFFGRCVSP |  |  |  | strongly activated | produced IFN-γ | no IL-4
